Results published in patent publication US9051572.

How the values were obtained:
[1] = target: Purified recombinant ubiquitin containing an amino terminal FLAG sequence (UniProt P0CG48)
[2] = target: in vitro translated [35S] TAp73α (UniProt O15350)
[3] = target: in vitro translated [35S] TAp73δ (UniProt O15350)
[4] = target: in vitro translated [35S] p53 (UniProt P04637)

Substance | ELISA for self-ubiquitination of Itch, OD450 signal [1] | in vitro ubiquitination (higher molecular weight [35S] species on SDS-PAGE) [2] | in vitro ubiquitination (higher molecular weight [35S] species on SDS-PAGE) [3] | in vitro ubiquitination (higher molecular weight [35S] species on SDS-PAGE) [4]
GST-Itch, from Thr 277 to Glu 903 (lacking the N-terminal C2 domain) | an assay OD450 signal of 1.972 was obtained | protein was ubiquitinated, as shown by the appearance of discrete higher molecular weight | The inability of Itch to ubiquitinate p738 and p53 | The inability of Itch to ubiquitinate p738 and p53
GST-Itch MUT (C830A), Thr 277 to Glu 903 | a background signal of 0.093 was obtained | this mutant, that retains the ability to bind TAp73 ... lost the ability to promote TAp73 ... ubiquitination |  | 
